Values belong to the substance of their own block, whether it stands above or below them.
What was measured:
Assay in all cases: cell-based or functional assay
[1] = molecular target: human CD40 antigen expressed on the surface of cells (human) (UniProt P25942)
[2] = molecular target: human CD40 antigen on the surface of B cells in human PBMC (human) (UniProt P25942)
[3] = molecular target: human CD40 on the surface of B cells within PBMC from normal human subjects (human) (UniProt P25942)
[4] = molecular target: human CD40 on normal human B cells (PBMC or purified B cells) (human) (UniProt P25942)
human CD40 on normal human B cells (PBMC or purified B cells) (human), sequence (P25942 20-277): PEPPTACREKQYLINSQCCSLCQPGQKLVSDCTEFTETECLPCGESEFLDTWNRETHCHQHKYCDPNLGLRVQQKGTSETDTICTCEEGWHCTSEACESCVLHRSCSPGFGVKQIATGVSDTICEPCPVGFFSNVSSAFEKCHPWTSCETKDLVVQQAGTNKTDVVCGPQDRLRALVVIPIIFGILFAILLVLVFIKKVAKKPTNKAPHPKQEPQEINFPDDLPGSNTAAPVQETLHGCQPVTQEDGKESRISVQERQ

[5] = molecular target: CD20 (human) (UniProt P11836)
CD20 (human), sequence (P11836 whole entry): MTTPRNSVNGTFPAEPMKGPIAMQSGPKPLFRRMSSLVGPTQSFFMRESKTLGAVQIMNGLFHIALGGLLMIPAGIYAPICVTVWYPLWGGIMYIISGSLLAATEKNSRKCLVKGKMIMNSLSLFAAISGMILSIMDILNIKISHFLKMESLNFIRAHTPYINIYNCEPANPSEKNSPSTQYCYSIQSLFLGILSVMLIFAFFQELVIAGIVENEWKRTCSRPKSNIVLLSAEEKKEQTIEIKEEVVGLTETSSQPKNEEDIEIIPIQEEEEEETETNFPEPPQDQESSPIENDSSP

[6] = molecular target: human CD20 on the surface of lymphoma cell lines (Ramos or Daudi) (human) (UniProt P11836)
human CD20 on the surface of lymphoma cell lines (Ramos or Daudi) (human), sequence (P11836 whole entry): as above

CD40 ligand on formaldehyde-fixed CHO transfectant cells, sequence (P29965 whole entry): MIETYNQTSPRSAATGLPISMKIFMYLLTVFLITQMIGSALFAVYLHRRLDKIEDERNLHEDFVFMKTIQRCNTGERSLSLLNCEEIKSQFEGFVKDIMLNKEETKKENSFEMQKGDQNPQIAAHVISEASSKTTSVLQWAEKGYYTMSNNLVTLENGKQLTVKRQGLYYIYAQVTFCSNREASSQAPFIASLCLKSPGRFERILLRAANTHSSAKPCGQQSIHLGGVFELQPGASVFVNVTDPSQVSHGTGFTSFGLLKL
CD40 ligand expressed on formaldehyde-fixed CHO cells, sequence (P29965 whole entry): as above
human CD40 on the surface of B cells within PBMC from normal human subjects (human), sequence (P25942 20-277): as the sequence (P25942 20-277) above
human CD40 antigen on the surface of B cells in human PBMC (human), sequence (P25942 20-277): as above
human CD40 antigen expressed on the surface of cells (human), sequence (P25942 20-277): as above

average stimulation index (SI), proliferation of total PBMC [1]: 7.41
Average SI of PBMC; PBMC + CHO-CD40L, index (1) [2]: 5.09
PBMC proliferation (3H-thymidine), CPM of PBMC + CHO-CD40L; PBMC-010 [2]: 5280 CPM
PBMC proliferation (3H-thymidine), CPM of PBMC + CHO-CD40L; PBMC-011 Donor#1 [2]: 8250 CPM
PBMC proliferation (3H-thymidine), CPM of PBMC + CHO-CD40L; PBMC-011 Donor#2 [2]: 11600 CPM
PBMC proliferation (3H-thymidine), CPM of PBMC + CHO-CD40L; PBMC-011 Donor#3 [2]: 7960 CPM
PBMC proliferation (3H-thymidine), CPM of PBMC + CHO-CD40L; PBMC-011 Donor#4 [2]: 14300 CPM
PBMC proliferation (3H-thymidine), CPM of PBMC + CHO-CD40L; PBMC-014 [2]: 8790 CPM
PBMC proliferation (3H-thymidine), CPM of PBMC + CHO-CD40L; PBMC-015 Donor#1 [2]: 12900 CPM
PBMC proliferation (3H-thymidine), CPM of PBMC + CHO-CD40L; PBMC-015 Donor#2 [2]: 19100 CPM
PBMC proliferation (3H-thymidine), CPM of PBMC + CHO-CD40L; PBMC-015 Donor#3 [2]: 19800 CPM
PBMC proliferation (3H-thymidine), CPM of PBMC + CHO-CD40L; PBMC-016 [2]: 15800 CPM
index (1) = (PBMC + CHO-CD40L)/PBMC; PBMC-010 [2]: 3.73
index (1) = (PBMC + CHO-CD40L)/PBMC; PBMC-011 Donor#1 [2]: 3.86
index (1) = (PBMC + CHO-CD40L)/PBMC; PBMC-011 Donor#2 [2]: 4.87
index (1) = (PBMC + CHO-CD40L)/PBMC; PBMC-011 Donor#3 [2]: 2.46
index (1) = (PBMC + CHO-CD40L)/PBMC; PBMC-011 Donor#4 [2]: 3.41
index (1) = (PBMC + CHO-CD40L)/PBMC; PBMC-014 [2]: 3.74
index (1) = (PBMC + CHO-CD40L)/PBMC; PBMC-015 Donor#1 [2]: 3.94
index (1) = (PBMC + CHO-CD40L)/PBMC; PBMC-015 Donor#2 [2]: 3.14
index (1) = (PBMC + CHO-CD40L)/PBMC; PBMC-015 Donor#3 [2]: 8
index (1) = (PBMC + CHO-CD40L)/PBMC; PBMC-016 [2]: 13.8
Average SI of PBMC; PBMC + CHO-CD40L, index (1) [3]: 11.9
Average Stimulation index; PBMC + CHO-CD40L, S. index (1) [3]: 22
PBMC + CHO-CD40L, CPM; Immoblize-004 [3]: 11700 CPM
PBMC + CHO-CD40L, CPM; PBMC-012 [3]: 6810 CPM
PBMC + CHO-CD40L, CPM; PBMC-025 Donor#1 [3]: 42300 CPM
PBMC + CHO-CD40L, CPM; PBMC-025 Donor#2 [3]: 15000 CPM
PBMC + CHO-CD40L, CPM; PBMC-026 Donor#1 [3]: 18300 CPM
PBMC + CHO-CD40L, CPM; PBMC-026 Donor#2 [3]: 18100 CPM
PBMC + CHO-CD40L, CPM; PBMC-027 Donor#1 [3]: 13000 CPM
PBMC + CHO-CD40L, CPM; PBMC-027 Donor#2 [3]: 11900 CPM
PBMC + CHO-CD40L, CPM; PBMC-028 Donor#1 [3]: 22500 CPM
PBMC + CHO-CD40L, CPM; PBMC-028 Donor#2 [3]: 54900 CPM
PBMC + CHO-CD40L, CPM; PBMC-029 Donor#1 [3]: 10100 CPM
PBMC + CHO-CD40L, CPM; PBMC-029 Donor#2 [3]: 23100 CPM
PBMC + CHO-CD40L, CPM; PBMC-030 Donor#1 [3]: 57200 CPM
PBMC + CHO-CD40L, CPM; PBMC-030 Donor#2 [3]: 53900 CPM
PBMC + CHO-CD40L, CPM; PBMC-032 Donor#1 [3]: 15300 CPM
PBMC + CHO-CD40L, S. index (1); Immoblize-004 [3]: 13.7
PBMC + CHO-CD40L, S. index (1); PBMC-012 [3]: 30.3
PBMC + CHO-CD40L, index (1); PBMC-025 Donor#1 [3]: 10.4
PBMC + CHO-CD40L, index (1); PBMC-025 Donor#2 [3]: 6.63
PBMC + CHO-CD40L, index (1); PBMC-026 Donor#1 [3]: 8.78
PBMC + CHO-CD40L, index (1); PBMC-026 Donor#2 [3]: 26.7
PBMC + CHO-CD40L, index (1); PBMC-027 Donor#1 [3]: 4.75
PBMC + CHO-CD40L, index (1); PBMC-027 Donor#2 [3]: 8.89
PBMC + CHO-CD40L, index (1); PBMC-028 Donor#1 [3]: 5.26
PBMC + CHO-CD40L, index (1); PBMC-028 Donor#2 [3]: 25.6
PBMC + CHO-CD40L, index (1); PBMC-029 Donor#1 [3]: 16.5
PBMC + CHO-CD40L, index (1); PBMC-029 Donor#2 [3]: 2.99
PBMC + CHO-CD40L, index (1); PBMC-030 Donor#1 [3]: 13.7
PBMC + CHO-CD40L, index (1); PBMC-030 Donor#2 [3]: 16.2
PBMC + CHO-CD40L, index (1); PBMC-032 Donor#1 [3]: 8.45
Substance: CD40 ligand expressed on formaldehyde-fixed CHO cells (from UniProt P29965 1-261)

Average Stimulation Index (SI), B cells + CHO-CD40L [4]: 145
S. index (1) = CPM (B cells + CHO-CD40L)/CPM (B cells alone); B cell-004 Donor 1 [4]: 7.49
S. index (1) = CPM (B cells + CHO-CD40L)/CPM (B cells alone); B cell-004 Donor 2 [4]: 336
S. index (1) = CPM (B cells + CHO-CD40L)/CPM (B cells alone); B cell-005 Donor 3 [4]: 92
Substance: CD40 ligand on formaldehyde-fixed CHO transfectant cells (from UniProt P29965 1-261)

% lysis (ADCC-012 Calcein AM, huNK E:T 10, 1 ug/ml) [5]: 66%
% lysis - % lysis IgG1 (ADCC-006 Alarmor Blue, huNK E:T 2, 0.01 ug/ml) [5]: 33%
% lysis - % lysis IgG1 (ADCC-013 51Cr, PBMC E:T 100, 0.001 ug/ml) [5]: 0.35%
% lysis (Ramos or Daudi; ADCC-012 Calcien AM, huNK E:T 10; 1 ug/ml) [6]: 66%
% lysis - % lysis IgG1 (Ramos or Daudi; ADCC-006 Alarmor Blue, huNK E:T 2; 0.01 ug/ml) [6]: 33%
% lysis - % lysis IgG1 (Ramos or Daudi; ADCC-013 51Cr, PBMC E:T 100; 0.001 ug/ml) [6]: 0.35%
Substance: rituximab (Rituxan; IDEC-C2B8) (antibody)
